The subject of the data set is F1*sub RNA substrate (template-directed ligation). Nature of the data set: fraction ligated after 30 min (ligated reads / total reads); higher = more ligase activity; sequences stand for … in GAGACCGCAACTGAAAAGTTGT…AGTTCTGCACGTAGAAGCAAAAGGC
The conditions noted are these: 42 °C. Put shortly: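 Templates from an oligo pool were PCR-amplified, transcribed with T7 and gel-purified to give the ribozyme variants. Ligated and unligated products were separated on gel, reverse transcribed using barcoded primers, and read on a MiSeq. A quality filter of ≥20 was applied to core bases. Fraction ligated was taken as ligated reads as a share of all reads per variant.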
“TATCACTTGTCGTAAGCATTGGATGGGTTGA [3d2121]” displayed a fraction ligated of 0.756.
“TATCACTTGTCGTAAGCATTTGATGGGTTGA [3d2122]” returned a fraction ligated of 0.408.
Under “TATCACTTGTCGTAAGCATTTGGAGGGTTGA [3d2124]” stands 0.0316; under “TATCACTTGTCGTAAGCATTTGGATGGGTTA [3d2126]”, 0.784; under “TATCACTTGTCGTAAGCATTTGGATGGGTTG [3d2127]”, 0.833.
With “TATCACTTGTCGTAAGCATTTGGATGGGTTGA [2d246]”, the fraction ligated came out at 0.849.
The figure for “TATCACTTGTCGTAAGCATTTGGATGGTTGA [3d2125]” is 0.17.
The figure for “TATCACTTGTCGTAAGCATTTGGTGGGTTGA [3d2123]” is 0.0465; for “TATCACTTGTCGTAAGCCTTGGATGGGTTGA [3d2114]” it is 0.778.
In turn, “TATCACTTGTCGTAAGCCTTTGATGGGTTGA [3d2115]” showed a fraction ligated of 0.718.
“TATCACTTGTCGTAAGCCTTTGGAGGGTTGA [3d2117]”: the fraction ligated came to 0.252.
The figure for “TATCACTTGTCGTAAGCCTTTGGATGGGTTA [3d2119]” is 0.79.
The figure for “TATCACTTGTCGTAAGCCTTTGGATGGGTTG [3d2120]” is 0.782.
Under “TATCACTTGTCGTAAGCCTTTGGATGGGTTGA [2d245]” stands 0.781.
As to “TATCACTTGTCGTAAGCCTTTGGATGGTTGA [3d2118]”, the fraction ligated turned out to be 0.364.
The figure for “TATCACTTGTCGTAAGCCTTTGGTGGGTTGA [3d2116]” is 0.243.
The figure for “TATCACTTGTCGTAAGCTTTGGATGGGTTGA [3d2105]” is 0.759; for “TATCACTTGTCGTACACTTTGGATGGGTTGA [3d1981]” it is 0.797.
As to “TATCACTTGTCGTAGAACTTGGATGGGTTGA [3d2014]”, the fraction ligated was found to be 0.845.
Consider “TATCACTTGTCGTAGAACTTTGATGGGTTGA [3d2015]”, for which the fraction ligated was 0.848.
Under “TATCACTTGTCGTAGAACTTTGGAGGGTTGA [3d2017]” stands 0.119.
The figure for “TATCACTTGTCGTAGAACTTTGGATGGGTTA [3d2019]” is 0.854; for “TATCACTTGTCGTAGAACTTTGGATGGGTTG [3d2020]” it is 0.854.
“TATCACTTGTCGTAGAACTTTGGATGGGTTGA [2d224]”: the fraction ligated is 0.864.
Under “TATCACTTGTCGTAGAACTTTGGATGGTTGA [3d2018]” stands 0.206; under “TATCACTTGTCGTAGAACTTTGGTGGGTTGA [3d2016]”, 0.138.
In turn, “TATCACTTGTCGTAGAATTTGGATGGGTTGA [3d2013]” returned a fraction ligated of 0.832.
The figure for “TATCACTTGTCGTAGACACTGGATGGGTTGA [3d2035]” is 0.778; for “TATCACTTGTCGTAGACACTTGATGGGTTGA [3d2036]” it is 0.657; for “TATCACTTGTCGTAGACACTTGGAGGGTTGA [3d2038]” it is 0.0635.
Take “TATCACTTGTCGTAGACACTTGGATGGGTTA [3d2040]”: the fraction ligated came to 0.757.
Under “TATCACTTGTCGTAGACACTTGGATGGGTTG [3d2041]” stands 0.782; under “TATCACTTGTCGTAGACACTTGGATGGGTTGA [2d227]”, 0.803; under “TATCACTTGTCGTAGACACTTGGATGGTTGA [3d2039]”, 0.095.
Under “TATCACTTGTCGTAGACACTTGGTGGGTTGA [3d2037]” stands 0.105; under “TATCACTTGTCGTAGACACTTTATGGGTTGA [3d2042]”, 0.128.
The figure for “TATCACTTGTCGTAGACACTTTGAGGGTTGA [3d2044]” is 0.0374.
As to “TATCACTTGTCGTAGACACTTTGATGGGTTA [3d2046]”, the fraction ligated was determined as 0.156.
The figure for “TATCACTTGTCGTAGACACTTTGATGGGTTG [3d2047]” is 0.754; for “TATCACTTGTCGTAGACACTTTGATGGGTTGA [2d228]” it is 0.789.
Under “TATCACTTGTCGTAGACACTTTGATGGTTGA [3d2045]” stands 0.0405; under “TATCACTTGTCGTAGACACTTTGGAGGGTTA [3d2053]”, 0.0985; under “TATCACTTGTCGTAGACACTTTGGAGGGTTG [3d2054]”, 0.0621.
The figure for “TATCACTTGTCGTAGACACTTTGGAGGGTTGA [2d230]” is 0.167.
“TATCACTTGTCGTAGACACTTTGGAGGTTGA [3d2052]” registered a fraction ligated of 0.072.
The figure for “TATCACTTGTCGTAGACACTTTGGATGGGTT [3d2057]” is 0.819; for “TATCACTTGTCGTAGACACTTTGGATGGGTTA [2d232]” it is 0.825.
The figure for “TATCACTTGTCGTAGACACTTTGGATGGGTTG [2d233]” is 0.843; for “TATCACTTGTCGTAGACACTTTGGATGGTTA [3d2055]” it is 0.406.
The figure for “TATCACTTGTCGTAGACACTTTGGATGGTTG [3d2056]” is 0.452; for “TATCACTTGTCGTAGACACTTTGGATGGTTGA [2d231]” it is 0.678.
In turn, “TATCACTTGTCGTAGACACTTTGGGGGTTGA [3d2048]” displayed a fraction ligated of 0.0891.
In turn, “TATCACTTGTCGTAGACACTTTGGTGGGTTA [3d2050]” yielded a fraction ligated of 0.0674.
The figure for “TATCACTTGTCGTAGACACTTTGGTGGGTTG [3d2051]” is 0.101; for “TATCACTTGTCGTAGACACTTTGGTGGGTTGA [2d229]” it is 0.287.
Under “TATCACTTGTCGTAGACACTTTGGTGGTTGA [3d2049]” stands 0.0676.
Under “TATCACTTGTCGTAGACACTTTGTGGGTTGA [3d2043]” stands 0.0334.
In turn, “TATCACTTGTCGTAGACATTGGATGGGTTGA [3d2028]” yielded a fraction ligated of 0.815.
Under “TATCACTTGTCGTAGACATTTGATGGGTTGA [3d2029]” stands 0.309; under “TATCACTTGTCGTAGACATTTGGAGGGTTGA [3d2031]”, 0.0197.
Under “TATCACTTGTCGTAGACATTTGGATGGGTTA [3d2033]” stands 0.799; under “TATCACTTGTCGTAGACATTTGGATGGGTTG [3d2034]”, 0.815.
In turn, “TATCACTTGTCGTAGACATTTGGATGGGTTGA [2d226]” had a fraction ligated of 0.842.
Under “TATCACTTGTCGTAGACATTTGGATGGTTGA [3d2032]” stands 0.147; under “TATCACTTGTCGTAGACATTTGGTGGGTTGA [3d2030]”, 0.0449; under “TATCACTTGTCGTAGACCTTGGATGGGTTGA [3d2021]”, 0.79.
The figure for “TATCACTTGTCGTAGACCTTTGATGGGTTGA [3d2022]” is 0.759.
The figure for “TATCACTTGTCGTAGACCTTTGGAGGGTTGA [3d2024]” is 0.211; for “TATCACTTGTCGTAGACCTTTGGATGGGTTA [3d2026]” it is 0.798; for “TATCACTTGTCGTAGACCTTTGGATGGGTTG [3d2027]” it is 0.777.
“TATCACTTGTCGTAGACCTTTGGATGGGTTGA [2d225]”: the fraction ligated turned out to be 0.814.
The figure for “TATCACTTGTCGTAGACCTTTGGATGGTTGA [3d2025]” is 0.344; for “TATCACTTGTCGTAGACCTTTGGTGGGTTGA [3d2023]” it is 0.234.
The figure for “TATCACTTGTCGTAGACTTTGGATGGGTTGA [3d2003]” is 0.814; for “TATCACTTGTCGTAGCACTTGGATGGGTTGA [3d2006]” it is 0.741; for “TATCACTTGTCGTAGCACTTTGATGGGTTGA [3d2007]” it is 0.761.
Under “TATCACTTGTCGTAGCACTTTGGAGGGTTGA [3d2009]” stands 0.101; under “TATCACTTGTCGTAGCACTTTGGATGGGTTA [3d2011]”, 0.728; under “TATCACTTGTCGTAGCACTTTGGATGGGTTG [3d2012]”, 0.792.
For the sequence “TATCACTTGTCGTAGCACTTTGGATGGGTTGA [2d223]”, the fraction ligated was determined as 0.823.
Turning to “TATCACTTGTCGTAGCACTTTGGATGGTTGA [3d2010]”, the fraction ligated stood at 0.171.
The figure for “TATCACTTGTCGTAGCACTTTGGTGGGTTGA [3d2008]” is 0.0859; for “TATCACTTGTCGTAGCATTTGGATGGGTTGA [3d2005]” it is 0.815.
Under “TATCACTTGTCGTAGCCTTTGGATGGGTTGA [3d2004]” stands 0.768; under “TATCACTTGTCGTGAACTTTGGATGGGTTGA [3d1983]”, 0.773; under “TATCACTTGTCGTGACACTTGGATGGGTTGA [3d1986]”, 0.779.
Under “TATCACTTGTCGTGACACTTTGATGGGTTGA [3d1987]” stands 0.508; under “TATCACTTGTCGTGACACTTTGGAGGGTTGA [3d1989]”, 0.0822; under “TATCACTTGTCGTGACACTTTGGATGGGTTA [3d1991]”, 0.703.
Regarding “TATCACTTGTCGTGACACTTTGGATGGGTTG [3d1992]”, the fraction ligated was 0.826.
The figure for “TATCACTTGTCGTGACACTTTGGATGGGTTGA [2d221]” is 0.808; for “TATCACTTGTCGTGACACTTTGGATGGTTGA [3d1990]” it is 0.0934.
Under “TATCACTTGTCGTGACACTTTGGTGGGTTGA [3d1988]” stands 0.135; under “TATCACTTGTCGTGACATTTGGATGGGTTGA [3d1985]”, 0.809.
Under “TATCACTTGTCGTGACCTTTGGATGGGTTGA [3d1984]” stands 0.784; under “TATCACTTGTCGTGCACTTTGGATGGGTTGA [3d1982]”, 0.783; under “TATCACTTGTCTAAAACTTTGGATGGGTTGA [3d1836]”, 0.789.

Values taken from the supplement of paper PMC6755084.
